According to patent US7250290B1, “Arsenic methyltransferase sequence variants” (priority 2003, dated 2007):
Like-named read-outs stand apart in the source and are kept apart here.

What was measured:
[1] = tested on: recombinant ASMT allozymes; assay: Substrate kinetic studies, apparent Km of recombinant ASMT allozymes; format: biochemical, human
Procedure: Estimating Apparent Km Values: To estimate apparent Km values of ASMT for the sodium arsenite and SAM, a series of sodium arsenite and SAM concentrations were tested with the recombinant allozymes. Blanks for each substrate concentration were included by assaying COS-1 cell cytosol after transfection with empty p91023(b) vector. […] Apparent Km values were calculated using the method of Wilkinson with a computer program written by Cleland. Wilkinson supra; and Cleland supra.
Alterations in amino acid sequence can alter enzyme substrate affinity and/or catalytic efficiency. […] A series of sodium arsenite and SAM concentrations were used to estimate apparent Km values for recombinant wild type ASMT and for the three variant allozymes.

[2] = tested on: recombinant ASMT allozymes; assay: ASMT enzyme activity of recombinant allozymes (methylation of sodium arsenite with 14C-SAM); format: biochemical, human; settings: COS-1 cell homogenate, 2.5 mM sodium arsenite, 10 μM 14C-SAM, corrected for transfection efficiency, mean ± SEM
Source text: Recombinant ASMT Expression Constructs and Allozyme Expression: ASMT cDNA sequences for the three non-synonymous cSNPs observed during the resequencing experiments were created using the QuickChange Site-Directed Mutagenesis kit (Stratagene, La Jolla, Calif.), with the wild type ASMT cDNA open reading frame (ORF) in the pUni/V5-His-TOPO (pUni) vector (Invitrogen) as template. Specifically, the full-length wild type ORF was amplified using human brain Marathon-Ready cDNA (Clontech) as template. The resultant ASMT cDNA was subcloned into pUni, a vector that is only 2.3 kilobases in length and thus is well suited for performing “circular PCR” during site-directed mutagenesis. Site-directed mutagenesis was performed using internal primers that contained the variant nucleotide sequences. […]
ASMT Enzyme Activity: ASMT activity was measured using the methods of Zakharayan et al. (Chem. Res. Toxicol. 8(8):1029-1038 (1995)). […] The protein concentration of each recombinant protein preparation was determined by the dye-binding method of Bradford (Anal. Biochem. 72:248-254 (1976)) with bovine serum albumin as a standard. “Blank” samples included the same quantity of COS-1 15,000 x g supernatant from cells that were transfected with “empty” p91023(b) expression vector to correct for endogenous activity. […]

B1: WT: recombinant wild type (reference) human ASMT polypeptide, SEQ ID NO:5, expressed in COS-1 cells (protein, listed as Homo Sapiens)
chain: MAALRDAEIQKDVQTYYGQVLKRSADLQTNGCVTTARPVPKHIREALQNVHEEVALRYYGCGLVIPEHLENCWILDLGSGSGRDCYVLSQLVGEKGHVTGIDMTKGQVEVAEKYLDYHMEKYGFQASNVTFIHGYIEKLGEAGIKNESHDIVVSNCVINLVPDKQQVLQEAYRVLKHGGELYFSDVYTSLELPEEIRTHKVLWGECLGGALYWKELAVLAQKIGFCPPRLVTANLITIQNKELERVIGDCRFVSATFRLFKHSKTGPTKRCQVIYNGGITGHEKELMFDANFTFKEGEIVEVDEETAAILKNSRFAQDFLIRPIGEKLPTSGGCSALELKDIITDPFKLAEESDSMKSRCVPDAAGGCCGTKKSC
In the case of B1, the Km ([1]; substrate SAM, read-out: SAM Km) is reported as 12 ± 6.9 µM, the Km ([1]; substrate sodium arsenite, read-out: Sodium Arsenite Km) is reported as 4.6 µM and the “Enzyme Activity (% WT)” value [2] is reported as 100 % WT.
